Data reported in IntAct's records for PubMed 23354168.

B1: Ephrin-B2 (Mus musculus), P52800 (parent)
chain: MAMARSRRDSVWKYCWGLLMVLCRTAISRSIVLEPIYWNSSNSKFLPGQGLVLYPQIGDKLDIICPKVDSKTVGQYEYYKVYMVDKDQADRCTIKKENTPLLNCARPDQDVKFTIKFQEFSPNLWGLEFQKNKDYYIISTSNGSLEGLDNQEGGVCQTRAMKILMKVGQDASSAGSARNHGPTRRPELEAGTNGRSSTTSPFVKPNPGSSTDGNSAGHSGNNLLGSEVALFAGIASGCIIFIVIIITLVVLLLKYRRRHRKHSPQHTTTLSLSTLATPKRGGNNNGSEPSDVIIPLRTADSVFCPHYEKVSGDYGHPVYIVQEMPPQSPANIYYKV
partner: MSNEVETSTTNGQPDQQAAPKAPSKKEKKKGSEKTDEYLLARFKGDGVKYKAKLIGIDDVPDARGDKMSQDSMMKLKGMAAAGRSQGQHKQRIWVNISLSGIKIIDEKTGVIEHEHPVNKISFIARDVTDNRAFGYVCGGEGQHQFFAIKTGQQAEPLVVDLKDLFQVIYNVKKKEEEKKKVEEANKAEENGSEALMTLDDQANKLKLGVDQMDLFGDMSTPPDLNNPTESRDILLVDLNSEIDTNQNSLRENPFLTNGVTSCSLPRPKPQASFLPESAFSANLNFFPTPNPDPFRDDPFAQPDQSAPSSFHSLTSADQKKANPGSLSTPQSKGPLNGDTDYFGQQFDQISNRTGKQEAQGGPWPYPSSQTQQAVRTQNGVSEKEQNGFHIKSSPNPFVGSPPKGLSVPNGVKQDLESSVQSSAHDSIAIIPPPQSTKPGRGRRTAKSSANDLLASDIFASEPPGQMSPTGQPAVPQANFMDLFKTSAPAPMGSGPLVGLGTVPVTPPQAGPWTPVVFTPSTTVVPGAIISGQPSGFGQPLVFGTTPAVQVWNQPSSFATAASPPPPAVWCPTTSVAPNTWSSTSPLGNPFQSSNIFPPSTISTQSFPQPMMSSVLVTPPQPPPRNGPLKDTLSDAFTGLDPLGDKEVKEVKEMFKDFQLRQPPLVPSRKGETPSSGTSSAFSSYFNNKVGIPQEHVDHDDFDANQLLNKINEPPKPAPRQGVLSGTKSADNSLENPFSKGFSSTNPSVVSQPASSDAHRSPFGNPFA

Variants of: B1
Settings: with dab2_rat Dab2, O88797

Variant	effect of a mutation on the interaction
V336S	disrupting interaction strength
